Source: patent US20200024330A1

Legend:
[1] = biological target: HIV-1 92BR020 envelope glycoprotein (Env) (HIV-1); assay: cell-based or functional assay
[2] = biological target: HIV-1 JRCSF envelope glycoprotein (Env) (HIV-1) (UniProt P20871); assay: cell-based or functional assay
[3] = biological target: HIV-1 Env of isolate 93IN905 (HIV-1); assay: cell-based or functional assay
[4] = biological target: Env of the clade G HIV-1 pseudoviruses of the cross-clade 162-pseudovirus panel (n = 15); assay: cell-based or functional assay
[5] = biological target: HIV-1 NL43 envelope glycoprotein (Env) (HIV-1); assay: cell-based or functional assay
[6] = biological target: HIV-1 MGRM-C-028 envelope glycoprotein (Env) (HIV-1); assay: cell-based or functional assay
[7] = biological target: Env of all HIV-1 pseudoviruses of the cross-clade 162-pseudovirus panel (n = 162); assay: cell-based or functional assay
[8] = biological target: HIV-1 MGRM-C-026 envelope glycoprotein (Env) (HIV-1); assay: cell-based or functional assay
[9] = biological target: Env of the clade AG HIV-1 pseudoviruses of the cross-clade 162-pseudovirus panel (n = 10); assay: cell-based or functional assay
[10] = biological target: HIV-1 94UG103 envelope glycoprotein (Env) (HIV-1); assay: cell-based or functional assay
[11] = biological target: HIV-1 MGRM-A-010 envelope glycoprotein (Env) (HIV-1); assay: cell-based or functional assay
[12] = biological target: HIV-1 APV6 envelope glycoprotein (Env) (HIV-1); assay: cell-based or functional assay
[13] = biological target: Env of the clade F HIV-1 pseudoviruses of the cross-clade 162-pseudovirus panel (n = 15); assay: cell-based or functional assay
[14] = biological target: HIV-1 APV17 envelope glycoprotein (Env) (HIV-1); assay: cell-based or functional assay
[15] = biological target: HIV-1 92RW020 envelope glycoprotein (Env) (HIV-1); assay: cell-based or functional assay
[16] = biological target: Env of the clade C HIV-1 pseudoviruses of the cross-clade 162-pseudovirus panel (n = 27); assay: cell-based or functional assay
[17] = biological target: HIV-1 Env of isolate MGRM-C-026 (HIV-1); assay: cell-based or functional assay
[18] = biological target: HIV-1 APV13 envelope glycoprotein (Env) (HIV-1); assay: cell-based or functional assay
[19] = biological target: HIV-1 93IN905 envelope glycoprotein (Env) (HIV-1); assay: cell-based or functional assay
[20] = biological target: HIV-1 Env of isolate JR-CSF (HIV-1) (UniProt P20871); assay: cell-based or functional assay
[21] = biological target: HIV-1 MGRM-C-027 envelope glycoprotein (Env) (HIV-1); assay: cell-based or functional assay
[22] = biological target: Env of the clade A HIV-1 pseudoviruses of the cross-clade 162-pseudovirus panel (n = 26); assay: cell-based or functional assay
[23] = biological target: Env of the clade B HIV-1 pseudoviruses of the cross-clade 162-pseudovirus panel (n = 31); assay: cell-based or functional assay
[24] = biological target: Env of the clade D HIV-1 pseudoviruses of the cross-clade 162-pseudovirus panel (n = 25); assay: cell-based or functional assay
[25] = biological target: HIV-1 93UG077 envelope glycoprotein (Env) (HIV-1); assay: cell-based or functional assay
[26] = biological target: HIV-1 JRFL envelope glycoprotein (Env) (HIV-1); assay: cell-based or functional assay
[27] = biological target: JR-FL gp120 ΔV3 (HIV-1 (isolate JR-FL)); assay: ELISA on coated gp120; EC50 by nonlinear regression
[28] = biological target: JR-FL gp120 ΔV1/ΔV2 (HIV-1 (isolate JR-FL)); assay: as above
[29] = biological target: WT JR-FL gp120 (HIV-1 (isolate JR-FL)); assay: as above

B1: PGT-136 (antibody, V domains shown)
VH: QLQLQESGPGLVKPSETLSLTCTVSGGSMRGTDWGENDFHYGWIRQSSAKGLEWIGSIHWRGRTTHYKTSFRSRATLSIDTSNNRFSLTFSFVTAADTAVYYCARHKYHDIFRVVPVAGWFDPWGQGLLVTVSS
VL: EIVMTQSPPTLSVSPGETATLSCRASQNVKNNLAWYQLKPGQAPRLLIFDASSRAGGIPDRFSGSGYGTDFTLTVNSVQSEDFGDYFCQQYEEWPRTFGQGTKVDIK
[1]
  IC50 neutralization: > 10 µg/mL
[2]
  IC50 neutralization: > 10 µg/mL
[3]
  Primary Neutralization Index (B cell culture well 5329 C19): 5.6
  Primary Neutralization Index (B cell culture well 5366 P21): 5.5
[4]
  Median IC50 against viruses neutralized with an IC50 <50 µg/ml: 18.9 µg/mL
[5]
  IC50 neutralization: > 10 µg/mL
[6]
  IC50 neutralization: > 10 µg/mL
[7]
  Median IC50 against viruses neutralized with an IC50 <50 µg/ml: 7.81 µg/mL
[8]
  IC50 neutralization: 6.5 ng/mL
[9]
  Median IC50 against viruses neutralized with an IC50 <50 µg/ml: 29.1 µg/mL
[10]
  IC50 neutralization: > 10 µg/mL
[11]
  IC50 neutralization: > 10 µg/mL
[12]
  IC50 neutralization: > 10 µg/mL
[13]
  Median IC50 against viruses neutralized with an IC50 <50 µg/ml: 4.75 µg/mL
[14]
  IC50 neutralization: > 10 µg/mL
[15]
  IC50 neutralization: 0.738 µg/mL
[16]
  Median IC50 against viruses neutralized with an IC50 <50 µg/ml: 7.52 µg/mL
[17]
  Primary Neutralization Index (B cell culture well 5329 C19): 6
  Primary Neutralization Index (B cell culture well 5366 P21): 6.2
[18]
  IC50 neutralization: > 10 µg/mL
[19]
  IC50 neutralization: 0.0135 µg/mL
[20]
  Primary Neutralization Index (B cell culture well 5329 C19): 0.9
  Primary Neutralization Index (B cell culture well 5366 P21): 1.1
[21]
  IC50 neutralization: > 10 µg/mL
[22]
  Median IC50 against viruses neutralized with an IC50 <50 µg/ml: 2.34 µg/mL
[23]
  Median IC50 against viruses neutralized with an IC50 <50 µg/ml: 13.2 µg/mL
[24]
  Median IC50 against viruses neutralized with an IC50 <50 µg/ml: 0.05 µg/mL
[25]
  IC50 neutralization: > 10 µg/mL
[26]
  IC50 neutralization: > 10 µg/mL
[27]
  EC50: 0.1 µg/mL
[28]
  EC50: 0.3 µg/mL
[29]
  EC50: 0.2 µg/mL
